Assay: protease stability score; higher = more stable; yeast display proteolysis, trypsin and chymotrypsin;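 note: log10 excess protease needed over predicted unfolded state with 0 meaning unfolded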

Sequence	protease stability score
DDSEIRTLAKQLAHVIETGDHEHFRKMAPPDVRARIGETEYHGREQVAEALKQERRTADHVQVEDVKASGNNVTLIITQKENGRRDRFKMVFEFHNGKVKFVSQEKQ	-0.189
EEKNRKVFEEAMKAFQTNDKDQAERMFDENATVKIGDQEIHGNKQIREHIRTMEEHMRLEIKSIDLKVSNGRVHANITFVEEHNGEPKTLRLHVRAEVDNGTIESMQFNDDG	0.159
DEDLQKQAERFLHAVNTGNEEQIHRLVDKDARMQYGDRRVHGRERIATWYRQMKEEIRQDIEVRTVRVRNGRVEVDARVERHVNGRPIDNKFHMSIQIENGKVKSITAHLDPNVLQEIKR	1.17
DRQVVRDAQTIFRLEKHGNENDVRRMADPNVDVNIGDKEIRGREEFAKSMRRKRDEIRVSLEIKNWTTTGDKANIDAKMQEEHNGRPSEKRVHIIVTATNGRMKSAHYHNTK	-0.006
DERDEKRLNETAHRLVKTGDPDQWARLADKDVHVRVGDKKWEGREQLRDLLSRIVKNVDTHQVDTVTAKNGRITIRMVLNINGRNLTIWVTMVIHNGKIKEVEVRVRSEKERKKLES	0.981
DEEVEEVIHRLVKALRTNNPDQVNQQLDKDARIKVGDKEIQGRDRYKRTVEQKIQEMNFHIHIKRLEVQGDKVRITAQESSEHNGQPRQRRLKFELRVKNGRVKSAEYHVDK	0.183
DEHIDHMYKEILRLLETGNSEEAQKLLDPNVKVVVGDKRYHGREDYARDMVRRIKEMDVQRDFDHVSVHNGKVDADAKQTTNSNGRPSSNTVRITIVQHNGRIHMIKIDSRQ	0.041
DEDNHRKAKKLIDAENTGDPTQVRKLADPNVHVEYGDEHVHGRDEIANELSKKAKEIRFRVDRLSFSVHNGTFSATQRMKENDNGRPEEFRVERSMELHNGKFVSIVQKKKS	-0.071
DEDAEREIDRLVRDNNEEDIERLMPEDAKMQVGDKTVTGRENIATQIKRLNQKADHRRIDKITLQGERVVINFTIVVNGTKFKAKIVLHAHNGKIKVVVLRARDEDLDREMSKVMN	0.028
DERIKDTVDQMWSAVKNNDPDQMNENFDPNARIEVGDKEVHGRDTLKKWQDTQNKRSNKDMESVSVKVDGDKVDIEAESKFTNNGQPHTNKMTASARLENGRFKEVHIDSRK	-0.513
DEENVKIARELLKNRTSGNEEHFKRLVDPNARFNVGDTRIHGREEYVKQVRDDFRNSRESIDVRSVSASGDKVEVDMKMHFEHNGQPRSKKVILDAKIHNGRLKEYRVEEEK	-0.045
DEQTKAQQFAEDVVKANQQNDKDRLTEQFDKNARVQVGEKEVHGREHIMEELIKLMTEADKVDVKVRHVHAQGDKVHLDIHFRMRVNGQDHDSRMTIVARNSNGTVVIESVDVK	1.19
DEEDRHELQRRAEHGDFLNLAHNADPNAHIKVGDKDLTGREDLDHVLRKMHNRIDRYHLVHVTKTGDKLVVRAQARVDGRDIEFKMEIRARNGRIKEVSIRFRSEEDQKTFEKLLK	0.059
DDEIERTMKNLMEAFSEGDPDKFRRNADPNAKMNVGDKSFHGMDDFLHQLKQLNKQARIEIEHITVTAQGDHAEVHAQFVNTENGRPRTKRVVYRAEVRNGQAKSIKLEDTK	0.176
DEDAVRNASTMVEAERRGDENTIQKMMDKHATVKYGDTEVHGREDAARQIRKTHREIRIQVDHYTVEAHNGRVRVEIRVVVNVNGTPYEYHYDYYAEVHNGKFKHIEINVDPDLEDKLKK	-0.16
DDTAIRIFEELQKAVENGDEREVQENLDEDAKIEYGNRTLHGREKAAKDYKRMHDQMEFTYDMKHFTVQGDKARLKVEYKATVNGKPYSDSVDVEVKIKNGKIKYIRFQFDEHKQRERDS	0.894
DEELLKIAKQFFEAEQNGDEDELKEQMDPNANLEYGDRTVHGRENIARWVSRVLREARIDFKEISVQDHNGRAKIHVRFVIDVNGRPNRMTRIVVVEQHNGRIKYLNIRMSEEQLKKLKE	0.132
DEEDYKSIATEFVQALREGDEQHFRRLLDEEVNNDVGDKRIRGREKVETELRKILHKVDHVDVKDYKVHNGHVTVDMRFDDNGKEERWTMQAQFHNGRLKSIWMRTR	1.08
DEKQNNHFKDLMETNDWTQIAKQADENAKAKYGDKTVHGRENITHNNRRIKNRVDEMRIRNLTLEPNRIVQNFVVRVNGQDAQAVMTLEFENGRVKSVKLQARDTRVEEVLRKMMQ	0.465
DEKQLVEVIREVIKALQQGHRDKVKKLGGPNVEVQAADYRNKGPEAILHMAEIVQRIGDEFQYRRTEQKGGTVTTTVEVHVGGHTVRYEVNAEAEGGKLKYWQADDDDKFIQHVKES	0.725
DERAQDLVRQWLENVHTGDPSKLREQMDPNAHVVIGDRTFTGRENFAETVHHHLQDQRVQYDTMRIENEGEKARFRYKATVQHNGQPSKHQATAQLTLHNGRIQSLQMESTQ	-0.162
DEDQATEVAELVKSNDWENLRRNIDPNARMHIGDRTLHGREEIAEVFRRIVEQADHQRLHHLEVEGDTIVIRMTVNINGKEVDFRMKIQFHNGKIKEVRVDFTDPKERKVFDKAAR	1.28
DDSLLDKVKEIFSVMRTGDPDKMKKLADKHATFEVGDKQIHGREELSEIMRRRRDEQKVSVEVKRVKKQGDTANIVFTVTNNHNGTPKVETQTMTVNMSNGKITYVNVQNDK	-0.007
DEEDEERFEELLKAEEDGDEDRMNELVDENAEFHYGDTVIDGMTDYAREVVHRLNELRWHIDWDDMKQSNGRIQVRAKLVVKVNGTPNNDDVERQVQWDNGRVHQMNERFDSKKHKEMDK	-0.158
DEENRKQFEEIVRVWNKGDEKRFNNLFDPNARFRYGDKEYKGNQSLMNWWRHLKKQARVEIDVKEVHVDGDKVHAHFRVTFDINGRPETQDVDVVLTVQNGRAKNFDNRIDPEFMRRVQS	0.141

Sequence	protease stability score
DTRDDERFKEFLKQIETNDPDKLVRMFDPNARIKVGDNELRGREQIHTFWKHVLDEQRVEYTDVKADFNGDKIEVDIRMVNQTNGEPEESRNKVEVKWHNGRLIDVIFRSDG	0.113
EDRERAKELVKRLTDAFRTNNPDDYVRQAPPDVTMQVGDKQYHGRSKVKEWIKQILDRVDHLKIELVDVKRSGEKLRFKAEYHYEHNGKTDRNTMEMVFTIQGDKMKIDDATQQ	0.134
DREERHRAEQWLNAIKTNNPDDVVEQADKDVRLEVGEERVSGRSELRKEVDKDRKRWDFEIDHVDIKVHNGRIHMTVDVVVRHNGKPDKQEQEYTIEFSNGRARTIVARQNK	-0.229
DTESAQTFVDVLEEGDFDTLVNLMDKNARLQVGDTTFNGRENARHFFELMKDKVDHLKIDHYEIHGNHVNIDMKLNVNGKTVDVVVYVKFHNGRIQHLRIEARDPEDMRTFKENMR	1.35
DDENRRFAERLMKVWRTNNEEDARTLFDKDVRFEIGDKVLHGKEQYAQSVRDIKKEMRFDARVRSIDVRGEKVVVLYDVEVQHNGRPQTKQVIFIANVHNGRIKEARVEDTQ	0.271
DEHNSRQAKEWVKALNHNDTSRLMELVDPNATITVGDKSLTGREQMSEDVDRKREEINVFVNRVEVNSHGDRAKVRIDYQQHENGRPQRNVIVAILQFHNGKIQRVENEHDQ	-0.052
DDEQDKKAEKLVNTGNFHDMANNADPNARIVVGDKRFHGREQFHTFMESLQTTIDHLQIKDIKRRPNHVEADVVAEVNGRRITFVILMVVHNGRIKNVEFKFRDEEDERVMEQILR	0.947
DEEDRKSLHDLNRTGDEDEIAHNVDPNAKLDVGEFKVHGSEQVKKVMEELKKRIDHRHIRSISVRGDKLVARVQIDVNGQTAYYRLIIRVHNGRIKEINADYTSEDDKKAVNEAKS	0.756
DEDKQRKRAETAAHIVENNNPDEQNKLADKDVTMQVGETQVHGREDLKELMEEMREQFDHIRVRSFDAHGNKVRLRFHAEYNGVTLEFVIINNYHNGKVQSINLRVTNPEEFRKAQG	0.122
DEEATKNAERLMRALNTNNEDEVLEMVDKNATMQYGDKTYHGREEISQAVDERRKEMRVHLRRVTVNAQGDKLDIKANMEVDHNGRPIKVNLRIEAKAHNGRITDIKIETDPELTRQRRT	0.539
DSREQEDFRRKVETNNPDQEKKMFDENARLQVGDKTYHGREKVFDFLKTLMDQVDHVHVRDMHVKGDEYSFDIILDINGRRIHITFLARVHNGHIKSQSLRATDESVKDEIEELQG	0.404
DESRKAREYMDKFKEIMDTGDPDKLRNLVPPDVTMQYGDRSLKGREEFVEHLQELLERADHVDVTVVDVKQDGDQLHFEVRVTYEENGERREYTFVFVAIVQGDKVRVKEMREK	0.065
DDEKLAREFQEKLREALRSGDDKKMVELMDKDARVVVGDKEIQGREEIAKTWATKATQADHVEVHIRNLRVENGRVTVNVEVRLNNNGQDRTNNNTLQNEVHNGHIHMKRQKEN	-0.274
DEEALKKMVDTLLKYVEQGNIKDIQQILKENVEFKLGDTEYKGVEHAKRDVKKLKDAGVEVHVKKTEVEGDTAHVETVWHAGDYEMHVTVQYVVRGDKVEKVEVRWSEEAKKALKVG	0.24
DEDKHAHELAKKLQKVWEEGAEEKQQELVDEDDRKNIGEHTYNGEEQLRRDLDKLRKDADHVDMKLKQIRFQGDKARIDMVVSQTVNGKRNTDRFTVEARLNNGRLRIKQVTKN	0.813
DEEMLEVVKQLLHAYQNGDEEKVKRLLDPNARVQVGDQVVHGRESYANEVRKERDEIRFDVKITSVKVHNGKIDIKADVHVNINGKPVKFDVIIEYKMEGDKIKQINVQMDPSQWKERES	0.913
DEEHAESVKTLFKNLRTNNEDEVEKLVDPNARMKYGDKQVHGRDEIKHMIQRLKDELHIEMDVKRMNVHNGQADLKFDITVVRNGKPDTAKANVRVQFSNGRIHDFTVQLNK	0.347
DEKDEAVKLLEHLMEALRRGDEDHARSLADPNVRADIGDRDYSGRNKVAQEWIRRATQADHLELRIRDVRVDGNEVTLEAELSMKVNGETHSDTVHFQFEKHNGRVVLVHVQFK	1.56
DEEDIAHQWQDKMRTAFKDNDPEQFTQLADEDAKMHVGDTEYHGRDTIMKTLVDEAKRADRITFNVQDFRVNGNNVVVRLEIRMQHNGKEDSKVVRLVFNQSGDDMRLRYAHDG	0.338
EEKATRIAHELLSAVERGDEDRAEENFDENAQFQVGDKDIHGREQMKHFVKTVKEQSRLDMHITDVQDRPGHANVKATAREDNNGNPNNIRITMRASVSNGRIQSMQINYTD	-0.638
DEERNELAEHVVKAWHHNDPDRVQKLVDPNVRFEIGDKEVHGREEYARIQRTEKDQWDLQIEVKHITVHNGRVDVDFDWRIERDGRPRTNQQVVIFEVDNGKVKRVSFQERK	-0.279
DEEELETMRRILKENDWETIAHNADKDVKMTVGDKTIHGRENVRHWVKKWQKNVDHIDVESIDVQGDRIDMVARNVVNGKTMKLVFHINVHNGHVQEIELRARNEKDEELLRKAEG	1.3
DEEKLDVARQYFEAVERGDEDRALELVDKDVRVDVGEKRVRGREEAKTQIRREEEEIRLRVEHVDFTAKGDRVRVRVVQVENINGRPVRFHYTMNMTMHNGRIKRIDVQIPEEVQEQLRG	-0.146
DERAVEVLERFLEAQKTGNEEDLKKQVDPNARIQIGDKQVHGMDQAARNLVDTYEEIQIDFRIDRMSAHNGNVTVEAHQQINVNGRPFRNSVTMHAYLQGDKAKEINYRVPEKFENEVKS	-0.326
DEENRHVAQELVKAEKSGDPKRAQELLDPNVRINVGDKTVQGREQHTQELEREKRELRIRIKSMHLKVEGDHVRIEATVSKTQDGQPRESKRSISIHMKNGKAKNIQVTYHK	0.13

— the NTF2 design screens of Basanta et al. (2020)
